# From the supplement of paper PMC9170038
# How the values were obtained:
# [1] = system: K4 kissing-loop RNA reporter; test: apparent KD of K4 kissing-loop reporter; higher = weaker reporter binding; settings: Eterna round: R107;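 further: bound reporter read as fluorescence of individual clusters on recovered sequencing chips by microscopy, with normalized cluster intensities fitted with a binding model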
# Protocol: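 RNA-MaP round R107: designed RNA switches with theophylline, tryptophan, arginine or FMN aptamers are transcribed on-chip within common flanks. They are titrated with a labelled K4 kissing-loop RNA reporter in RNA-MaP buffer (100 mM Tris pH 7.5, 80 mM KCl, 4 mM MgCl2), without ligand or with the indicated ligand. Median apparent KD per design.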
# [2] = system: MS2 coat protein; test: apparent KD of MS2 coat protein; designed switch direction (-1 OFF switch, 1 ON switch): -1; higher = weaker reporter binding
# Outline: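 Three titration conditions were used: no input, 200 uM small-molecule ligand, and an oligonucleotide input. In each, SNAP-549-labelled MS2 coat protein was raised from 0.7 or 1.5 nM, doubling, to 3 µM over designed RNA switches transcribed on Illumina chips by stalled E. coli RNA polymerase. Curve fits of normalised cluster fluorescence gave values whose per-design median over clusters is the apparent KD.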
# [3] = input ligand: theophylline 20 uM
# [4] = input ligand: tryptophan 2.4 mM
# [5] = input ligand: microRNA oligo, concentration not stated
# [6] = Eterna round: R95, input ligand: microRNA oligo, concentration not stated
# [7] = Eterna round: R95, input ligand: FMN 200 uM
# [8] = Eterna round: R95, input ligand: none
Sequence,apparent KD of MS2 coat protein ([2]; input ligand: FMN 200 uM) [nM],"apparent KD of MS2 coat protein [2, 5] [nM]",apparent KD of MS2 coat protein ([2]; input ligand: none) [nM],"apparent KD of MS2 coat protein [2, 6] [nM]",other results
AUGGUGGAUCAGUGAUGUUGGUGGAGUACGUAGGAUAUGAGUGAUGUUAGAAGGAUGGGAGUGAUGUUCCAGGUGGUUGUGUUGU [KL-SSFMN-A1],,,,,"apparent KD of K4 kissing-loop reporter ([1]; input ligand: FMN 200 uM): 557 nM; apparent KD of K4 kissing-loop reporter ([1]; input ligand: arginine 13.2 mM): 364 nM; apparent KD of K4 kissing-loop reporter ([1]; input ligand: none): 652 nM; apparent KD of K4 kissing-loop reporter [1, 3]: 507 nM; apparent KD of K4 kissing-loop reporter [1, 4]: 492 nM"
AGCGAUGUUUUCUCUAGGAGUGAUGUUUUUCGAGGACCGGUACGGCCGCCACUCGGACGACGAGUGUGGUAGUGGGCUGUUGACU [ffmullin],,,,,"apparent KD of K4 kissing-loop reporter ([1]; input ligand: FMN 200 uM): 483 nM; apparent KD of K4 kissing-loop reporter ([1]; input ligand: arginine 13.2 mM): 296 nM; apparent KD of K4 kissing-loop reporter ([1]; input ligand: none): 441 nM; apparent KD of K4 kissing-loop reporter [1, 3]: 231 nM; apparent KD of K4 kissing-loop reporter [1, 4]: 493 nM"
GCAGUGAUGUUGCGCAUGUACAGUGGAGUGCGAGGACCGGUACGGCCGCCACUCGUACAGAACAAGCUAAUAUAUGGAUAGGUGA [IX],,,,,"apparent KD of K4 kissing-loop reporter ([1]; input ligand: FMN 200 uM): 418 nM; apparent KD of K4 kissing-loop reporter ([1]; input ligand: arginine 13.2 mM): 525 nM; apparent KD of K4 kissing-loop reporter ([1]; input ligand: none): 543 nM; apparent KD of K4 kissing-loop reporter [1, 3]: 510 nM; apparent KD of K4 kissing-loop reporter [1, 4]: 306 nM"
"AAACAACGGACAGGAUAUCCGAAAAUAAAGCUAGGAGAAGGGUCGAAAACAUGAGGAUCACCCAUGUGCGUGGCGGGUUCUUAG [Zaerqu] (Eterna round: R96, puzzle: Exclusion NG 1)",25.6,13.4,21.2,,
"CACCCACAUGAGGAUCACCCAUGUGAGGAUAUGAUACUAUGUACUUCGGUACAUAGUAUCAGAAGGCACAGGUG [Ex1-3: 61] (Eterna round: R96, puzzle: Exclusion 1)",102,25.7,28,,
CUUCUCAAAGGAUAUCACGGUAAUAACAUGAGGAUCACCCAUGUGCAAUUCGUGUCCCUGUGAGAAGGUUGAGAAG [Remaor] (puzzle: Exclusion 5),,,,10.5,
"GGAUCGAGAGUGAGGAUAUGCUGGUCCUUGGAUCAGCAGAAGGCACAUGAGGAUCACCCAUGUGAUUCCGAUCC [Mat - Exclusion 4 - Eli Mod - D39] (Eterna round: R97, puzzle: Brourd's mod of Exclusion 4)",399,,40.6,,
"ACAAGCUUUUAGUUCGUCUUAUACACUCCUAAUAAGAAAACAUGAGGAUCACCCAUGUAAGAAAUAAGAACUCAUGU [Sesor Array 2 - Jieux - Sensor v3, turn-off variant 2] (puzzle: Sensor v3, turn-off variant 2)",,,,396,"apparent KD of MS2 coat protein [2, 7]: 151 nM; apparent KD of MS2 coat protein [2, 8]: 209 nM"
"ACUAAAUAAACAAGCAAUAAUCCAUCGUCUUAUACUAAAACAUGAGGAUCACCCAUGUAACAGGUGGUGUUAAAUAA [JR_Sensorv2_tov2_Sub1202] (Eterna round: R96, puzzle: Sensor v2, turn-off variant 2)",15.4,40.6,19.1,,
"CUGCUCCGUGUAGGAUAUGCGCGCACCCACCGCGCAGAAGGACAUGAGGAUCACCCAUGUAUGUUAUUAUCACGUGAGGCGCAG [Design 35] (Eterna round: R96, puzzle: Exclusion NG 1)",29.6,13.6,19.2,,
"GGUACUCAAAGAGUACCAAUACGAACAUGAGGAUCACCCAUGUAGGAUAUGCUACUCAAAGAGUAGCAGAAGGAUAUGAUCCCU [Far Half Aptamer v12] (Eterna round: R96, puzzle: Exclusion NG 3)",211,99.6,126,,
"GUUUGCACGCUGCGGUCCUACAUGAGGAUCACCCAUGUGGUCUGGUGGCGUGGGUCGCCGGACUUGGCUCGUCUUGG [salish99_S_TOV1_R5_039] (Eterna round: R97, puzzle: Sensor, turn-off variant 1)",15,,14.8,,
"GAUUAUGCGAGCUUUAGGGACAUGAGGAUCACCCAUGUUCGUCUUAUUGGUCUAGGUACGCUGACAUACCUAAAUCU [JMF 101] (puzzle: Sensor v3, turn-off variant 1)",,,,32.2,"apparent KD of MS2 coat protein [2, 7]: 20.9 nM; apparent KD of MS2 coat protein [2, 8]: 23.7 nM"
"UUUAAUUUUUUUUUUUUACAAGCUUUUUGCUCGUCUUAUACAUGAGGAUCACCCAUGUGGAUGGAAGAUAAAUUAUC [JMF 9] (puzzle: Sensor v3, turn-off variant 2)",,,,18.6,"apparent KD of MS2 coat protein [2, 7]: 16.2 nM; apparent KD of MS2 coat protein [2, 8]: 16.5 nM"
"ACAUGAGGAUCACCCAUGUGAAACCAAUGGCUGACUUUGAGACAGGAUAUUCGUGCAUAUCAAACGAAGAAGGGUCAUUACUGG [Deportation 95 - Jieux - Exclusion NG 3] (Eterna round: R96, puzzle: Exclusion NG 3)",56.8,41.1,46.8,,
UUUUACAUAGGAUAUAGUUUCUUUUACAUGAGGAUCACCCAUGUUUCUCUUCUCUCUCUUCUAGAAGGAUGUUUCU [JR_E5_Sub013] (puzzle: Exclusion 5),,,,33.5,
GAUUGACAUGAGGAUCACCCAUGUGAGGAUAUCGGCCGGAUCUUGUUAGCUUCCAUCGCGAGAAGGCACAUAGG [Exclusion 1 V33] (puzzle: Exclusion 1),,,,55.2,
AUAUAAAUAUAGGAUAUCGAAUUUAUUAAUUAUCGAGAAGGAUAAACAUGAGGAUCACCCAUGUGGUAUCAUGG [Mat - Exclusion 6 - JL Mod - D40] (puzzle: Exclusion 6),,,,270,
UCGCUGCGAGGAUAUACGUGCGCGCGCUUUCGUUUGCGCGUACAUGAGGAUCACCCAUGUAGAAGGCGCGCUGC [Apr-15 SS2-6] (puzzle: Exclusion 2),,,,12.7,
AAAAGGUGAGGAUAUACAAUGAUCCUCAUAAUAACCCGAAGACAUGAGGAUCACCCAUGUAGAAGGCACAAAUA [Istive] (puzzle: Exclusion 2),,,,16.5,"apparent KD of MS2 coat protein [2, 7]: 33.4 nM; apparent KD of MS2 coat protein [2, 8]: 19.8 nM"
"UUUAAUUUUUUUUUUUUACAAGCUUUUUGCUCGUCUUAUACAUGAGGAUCACCCAUGUGGGUAGAGAGUAAAUUAUC [JMF 59] (Eterna round: R96, puzzle: Sensor v3, turn-off variant 2)",21.1,102,19.3,,
"GAUGCUUCGGCAUCUACAAGCUUUUUGCUCGUCUUAUUAACAUGAGGAUCACCCAUGUUAAUGAGACCUCAUGUAUU [Sensor v3 - turn-off variant 2 - 7] (puzzle: Sensor v3, turn-off variant 2)",,,,14.9,"apparent KD of MS2 coat protein [2, 7]: 13.5 nM; apparent KD of MS2 coat protein [2, 8]: 11.1 nM"
"GUCCUACAUGAGGAUCACCCAUGUGAGGAUAUGCGGUUAGCUGCUAGGUAGUUAGUAUGCAGAAGGCGCGUGAA [EX1 #80] (Eterna round: R97, puzzle: Exclusion 1)",15.9,,14,,
GCCAGAGCAGGAUAUUCAAUAUUCCACAUGAGGAUCACCCAUGUCCUGCGAAAGCAGGAGGGAGAAGGGCUCUGGC [Mat - Exclusion 5 - Eli mod - D91] (puzzle: Exclusion 5),,,,56.2,
"ACAAGUUUUUUGUUUUUUAACAUGAGGAUCACCCAUGUAUUUUUAGAGGAUGUGGGAAUAAGAGCUCUUUGUCUUAU [JR_SV3TOV1_Sub097] (puzzle: Sensor v3, turn-off variant 1)",,,,90.3,"apparent KD of MS2 coat protein [2, 7]: 38.6 nM; apparent KD of MS2 coat protein [2, 8]: 41.2 nM"
"ACAUGAGGAUCACCCAUGUGGACGUAAUGGCUCAUGUAGAGUGAGGAUAUGUGAGACGAACGAGAACAGAAGGCACAAGACAGG [Deportation 7 - Jieux - Exclusion NG 3] (Eterna round: R96, puzzle: Exclusion NG 3)",26.3,14.5,22.1,,
"UUUUGGCAUGUAGGAUAUGGGUCCGAUUAGGAUUUAGAAGGACAUGAGGAUCACCCAUGUGCCCUUACUUGGUCUUUUUUUUUU [EXclNG1-LROPPY18] (Eterna round: R96, puzzle: Exclusion NG 1)",52.3,19.2,41.2,,
"GAAUAGCGAGGAUAUGCAAUGAAGAUCGUACGAUAUGGCUGACAUGAGGAUCACCCAUGUAGAAGGCGCUGAUC [EX2 #14] (Eterna round: R97, puzzle: Exclusion 2)",55.1,,53.7,,
UCGGCGCGAGGAUAUGCGGCUGCUGCUUCGGGCCGUGGCGUACAUGAGGAUCACCCAUGUAGAAGGCGCGCCGC [Apr-15 SS2-40] (puzzle: Exclusion 2),,,,11.3,
"GCAUAUGAUGUAGGAUAUGCGAGACAUGAGGAUCACCCAUGUGAGGGAAGGAGAAGGAGAAGAGAGUAGAAGGAUAGAGUGUGA [Default title] (Eterna round: R96, puzzle: Exclusion NG 2)",83.8,85.3,85.1,,
